Test results reported in the DeepSol protein solubility set.

Experiment: soluble on expression in E. coli; label from the status in PepcDB or PDB records

Row | Sequence | soluble on expression in E. coli
1 | MKFVNFDEYKQLVDYFRNRLNPNYSSPTMLFIISITGMRASEAFGLVWDDIDFNNNTIKCRRTWNYRNKVGGFKKPKTDAGIRDIVIDDESMQLLKDFREQQKTLFESLGIKPIHDFVCYHPYRKIITLSALQNTLDHALKKLNISTPLTVHGLRHTHASVLLYHGVDIMTVSKRLGHASVAITQQTYIHIIKELENKDKDKIIELLMELLEHHHHHH | soluble
2 | MFGWRGRIGLIVPSSNTTMEMELHSFLPEGVSLHTSRMPLKSITDEELFKMNSYAIEAASLLADAGVEVIAFGCSSGSFIGGQDFEKELEMKIEEEVNIETFTTSTAVLEALDVLDAQSLLIVTPYSDEINQKEKEFLEGNGFEVLDIKGLNLTDNLEIGKLEPYVVYRLAKAMFAGDADAIFISCTNLRTFEIIEKLERDLGVPVITSNQATLWMALRQIDVRDQLPLGKLLREY | soluble
3 | MPSIRLADLAQQLDAELHGDGDIVITGVASMQSAQTGHITFMVNPKYREHLGLCQASAVVMTQDDLPFAKSAALVVKNPYLTYARMAQILDTTPQPAQNIAPSAVIDATAKLGNNVSIGANAVIESGVELGDNVIIGAGCFVGKNSKIGAGSRLWANVTIYHEIQIGQNCLIQSGTVVGADGFGYANDRGNWVKIPQIGRVIIGDRVEIGACTTIDRGALDDTVIGNGVIIDNQCQIAHNVVIGDNTAVAGGVIMAGSLKIGRYCMIGGASVINGHMEICDKVTVTGMGMVMRPITEPGVYSSGIPLQPNKVWRKTAALVMNIDDMSKRLKSLERKVNQQD | not soluble
4 | MSLESLVPYNETVSTEVQFAKALEKYKFDLLHAKSNFHDQDQEQNTADVNNQHLQTQAQSSSPFDIVQKFADIAAANAYSVLPDQLSSNIDDDVYDQDFTNWDLEMKFWRLVENLNYYRVFCYENEVFGKEKEIGELYAILDWLQYHSAGEREHDQILKDQLGNEDENGNGDEEEKLLGTRSKWINTRLSIENGVYDALSGKNSNDQLIQEMDVDAPLRSGMHVDAKDAELDSKNFQAIYKLVVLGEYTDAIEFANETGNHALAVILAGAISFVEDDDQVMELANEVEGEGNIKLSASTRDKTIWVRLVYKLSKNTNLDPNERLIYSYLSGGDISENLKRASDSYEESINILVRQLLTYSELQKMHLNSFVEFTPPAPQANSMKDILNIVSNSLGSRAAEESRHPVRILMAAIMLDDLDPIISDLNDSTNDNILRILVHASLFLALLRSPQNPEQLNALITLYISKLTENNQTELVPLYLSFIPDERDARETYSLILASITDKEQRRKQLEIAKGISQSHQQSPLPLLQSQPSSHSNEDTEMVPIDDVEQDKLVNVLRRTVERVMDETEEYYNPGNEPFAIVDSGSEGHHHHHH | soluble
5 | AIADTGELHDLTVKGAVVTQLERCEVACQRLFQNLALLGLELQNSESITEGVCDSKAASDLGSSVELLENEERALRLCVDRFVLELRQVENLAKTLDGIREEEERILSLEQRSIEQAERCFYLWNDAREMLRGTRLTSIKEVLESAARYPRIPSWTPLPTSN | soluble
6 | MFEGFKEVTDKDFYKAVMMNPKPSVVVFTDPNNPANEQIKPILEKYQKLYGDKIDFFYMDVTKNTSFEDFGIFNFPAILYFRDTMELDRHDFIPTEEMVEQAIKRLLRMV | not soluble
7 | MSLSRRGRPKIPRFISEEPKFRIFKPHGVSLTEVDKVILSVDELEAIRLVDYLDYTQEEASKLMGISRRVLWSLLTEGRKKIADALINGKAIVIEGGEYKIRECGFCMRHRFGIKKHCRTWREELEGHHHHHH | not soluble
8 | MAHHHHHHMKYGQVVVGPAGSGKTNYCKLMKEFMKIKKRNCYVVNLDSASEEYYYERKKKAINTTSNIEKELKQYYDTIYDIDIRNYVDVNSLMEDQMLGPNCALLRSVELLYENSYLLEDELNNYDDDENYFIIDTPGQIELYTHTDYFKKILSIFTDQNIRLIVVFLVDISFISSNTKLLSAYLTSLSTMINFELPHINILTKCDLLASKNYYQELRKFKHNNNFFFQRKLYKKINKKIKGGRGSRFFLNDKAEQSDGEGKRPSDDLGDTFLKEMECINGDKSFKDEYILCSDYDKRSVSSFSSASMSEGRSEKFGKNSSDEHSSSSVRSEEIEEKIYQKNYEKLNDILSLDPHDIVMTANKCMSRKYYKLNNAFAHIIEDFNLVSFIPLNIYDDDNVDFIINSIDMIIQYGEDKDVNDNYDM | not soluble
9 | MENLKNVAPIEDFNWDAYENGEAVTSASHEDLEKAYDGTLNKVNDREVVDGTVIAMNKREVVVNIGYKSDGIIPLNEFRYNPDLKVGDTVEVYIENQEDKKGQLVLSHRKARATRSWDRVNAALENEEIIKGFIKCRTKGGMIVDVFGIEAFLPGSQIDVKPIRDYDVFVGKTMEFKVVKINQEFKNVVVSHKALIEAELEQQKKEIIGKLEKGQVLEGTVKNITSYGVFIDLGGVDGLIHITDLSWGRVSDPKEVVELDQKLNVVILDFDDEKKRIALGLKQLTPHPWDALDTDLKVGDKVKGKVVVMADYGAFIEIATGVEGLIHVSEMSWSQHLRSAQDFMKVGDEVEAVVLTLDREERKMSLGIKQLKQDPWETIEEKYPVGSKHTAKVRNFTNFGVFVEIEEGVDGLIHISDLSWTKKVKHPSEFTQIGADIEVQVLEIDKENRRLSLGHKQLEENPWDVFETVFTVGSVHEGTIIEMLDKGAVVALPYGVEGFATPKHLVKEDGSQAQLDEKLEFKVIEFNKDAKRIILSHSRIFEDVAKAEERAEKKAASGAKKSSNNKREDAPMIQNQAASTTLGDIDALAALKEQLEGKKLEHHHHHH | soluble
10 | AAASFGQTKIPRGNGPYSVGCTDLMFDHTNKGTFLRLYYPSQDNDRLDTLWIPNKEYFWGLSKFLGTHWLMGNILRLLFGSMTTPANWNSPLRPGEKYPLVVFSHGLGAFRTLYSAIGIDLASHGFIVAAVEHRDRSASATYYFKDQSAAEIGDKSWLYLRTLKQEEETHIRNEQVRQRAKECSQALSLILDIDHGKPVKNALDLKFDMEQLKDSIDREKIAVIGHSFGGATVIQTLSEDQRFRCGIALDAWMFPLGDEVYSRIPQPLFFINSEYFQYPANIIKMKKCYSPDKERKMITIRGSVHQNFADFTFATGKIIGHMLKLKGDIDSNVAIDLSNKASLAFLQKHLGLHKDFDQWDCLIEGDDENLIPGTNINTTNQHI | soluble
11 | LGFLPKEKKDKIKRFIKYEDALMSLTAEILIRAVVCSKLGIKNESVKFNRTTYGKPYLEGYDDFHFNLSHSGSWVVCAVSSKPVGIDIEKIREVDLDIAKRFFSKEEASDLFAKEDNEKTEYFFELWTLKESYIKADGRGLSLPLNSFFFRIENDNVIFVSESEKKKFFFKRYDIDKGYKLAVCSMESHFPEDVEIKSFEEVCKFLCER | not soluble
12 | MEASLYSRVGDKVVCQLCWRFCKLGDGEEGHCRVRRNEGGKIFTTTYGKLSHLESRPIEIKPFFHFLPGSTSMTFSTYSCNFDCPWCQNWSISKATPPEALRETSPEEVVDLALIMGDKSTCASLNEPTLLYEYLLDVFRLAREKGLKNTMVSNGYMSILALKNLKNAGLDAINIDVKGDERVYRDYCNAEVEYVWRVIEKATKLGIHVEVVCLLVSNVVDEEVVREIVREHLRRAGSSIPIHFTRYFPAYRFTAPPTRIEFLEWAVKHAYKEGAEFAYIGNVPGHRFENTHCPDCGELLIRRYSFSTVDNRIRSGCCPKCGREIYGVWV | not soluble
13 | MGSDKIHHHHHHMVLRNSEGTHVHAADADQRPRAICLSTMTTNMQIVTLFRDAPDFAEPGNFEAHLVRLWSVIEALSGKDDRLGQWYLTGSTEEEALLYPAFEASGAPSTALLAVLKTKYQGKRNRAKVVGLWNGHNNPTDGATLKLSIDTGPLPSEVAIDPPKPRDAETGLAPLAAIQGIVSLLVATYAPAVVSVAPMDYFEKKVFDDKPGVGWMLYLPKVITQQQVPEARALIPVPAKGKQTGTIIVSVTDAPFSVDNPEHVAIANRIEIRLVDQDLLPAYVDI | not soluble
14 | ILRTKAQFVAMNEASLMQINHEWLQGTQSKQVTSQGETWQIDKRAESTISPNVQRIEIQVSLFDTQQNKVEAGITNLVFFNYPQKENAS | not soluble
15 | MNTSSSADPKPDASLSSSNSKIKKEEDLEAMKEAIAQLLQGVEELTQDKLNDAKSRKKLEESMEELKSQNLDLKAQLDFQMAHFQSLFEAHEKEIADLKARQYQNNSIAAQTPPPDVRQELRSFPMVKHSRENPELRNVPVLIFSRCMLCETDEHTIHSCPIYNTNSKRYEGFKDKGLCRSCALPANSDGSATCGRNCMFSRRRCTNCWDKGGDKSYVYHLEFTCRWDERRSQRTSPFSTDHSDRSSKHPRISFDECENHHY | not soluble
16 | MAVLIETTLGDLIIDLFVKERPRCSLNFLKLCKKKYYNLNQFHSIERNYVAQTGDPTGTGKGGESVYSDMYGEQGRYFEREDLPKMRHTRMGIVSFVNNGDNMLGSQFFITLGENLDYLDDQHTIFGQVTEGLETLEKLNEQLADTNNRPFKDIRISHTIVLDDPFDEDARISFPPRSPSPTYEMLVKTDQIALDEKEDEDEGKTAEEIAEELQQREMAEQAQILEMVGDLKDADEVPPENVLFVCKLNPVTTDEDLEIIFSRFGKINNCEIVRDRRSGDSLQYAFIEFDNAKSCEQAFFKMDNVLIDDRRIHVDFSQSVSQNYKYKPKSQQQEAPKRRQSPQRRPEVKRSHQRSPSPRRRRSPSPKKDKKRDYRREPARRRRSSDNHRDRDRSYRDNNRDRRDNHRDSDRDRRRHDRSPDRRRDRR | not soluble
17 | DIGCYTLGLLPPFDAQDSSTDMGSSIGIANGVYRATGNIPIAVIGDSTFFHSGISALANAVYNQTPMLVLVLDNRSTAMTGQQPSPSKEIDIGEVAKGLGVKYVRYVDPFDVNSSIRELSNALKWVKDNKQPAVVIAKRACALLVMDNVEESNLPKA | not soluble
18 | MSLQEVITLKVIGPWSGAELDAFMEVLKAFEKQHPNIKIEYKTYRAEDLSTILPLQFESHDTPADVIFMWGWFIAEMGKKGHLMELNNIINPEEYVPGILDSVTVDGKIYGAPFTAAAKPGFWYRKSFFEKHNLKPPKTWDDFVALLEEIKKIPGIKAPIVSGDSVGWPLSDVTEHFILTFGGKDLQLKLIKGEVKWEDPQVRKIFEEKLVPLLKAGYFSDPIEWTSAVDLWWKGEYALYFMGTWITGMVDDPNDLGLIPLPGVKAMVIAPDYLMVPKYTSHPKEALELAKFLATEGQRIHVGTKSGKLATWKKVSIDDYWAPMRDVAKIVANVESAPDLDDSVGGEWQKVFWDQLKLLWVQPDRLDEVLKTLDEKFPKEGHHHHHH | soluble
19 | MHTDTPSLESLLEAARQRYDVVFEPLTVDETPLDVLQIRNMRQHIDALVANRSVRDPLHDLPLWAKIWPASFVLGRFLRKASPEGRTLLEVGAGCGVTGLIASRYGFAHVTVSDINEDALLFARANVLKNGLEDRVSVRRVDVASTRLDEKFDVIAASEVLYLEELHRPLIKFLLRHLARREDAVAMLCTDTRRKMGRFFKQAERDFRIEEQLVGIRTTGDDGEEERRVFTIHRLHHKHPLEHHHHHH | not soluble
20 | MGSDKIHHHHHHMKGMEEVVIDAKDMHYRELNEKIHEILRENPDIKKIVLKNVLGQRFIADGIQKKDLTIEIYGIPGGDLGMFMSGPTIIVHGNAEFAPGNTMDDGTIVIYGSSGDVTAHSMRGGKVFVRGDVGYRSGIHMKAYKDKVPVLVIGGRAKDFLGEYMAGGIIIVLNIDEKGNDLGKVKGRMIGTGIHGGAIYIRGEIDKDQLGVAADIKEFTEEDLEKIKPYIEEFCKWFNLPEDVKNKLLNSKWTKIAPISKRPFGKLYTPDLM | not soluble
